Assay results taken from patent US20230295259A1 (Protagonist Therapeutics, Inc., priority 2020, published 2023).
Starred links: 1 amine or outer side, 2 acyl side, 3 side chain; linkers in the order of their positions; H or OH if unused. Positions of bridges follow the written chain, without caps; N, C: chain ends. Non-standard residues stand in square brackets, D forms with d. Groups on a side chain read outwards from the residue. *: point of attachment. Glu(OMe) = COC(=O)CC[C@H](N[*:1])C(=O)[*:2]; C18 diacid = O=C(O)CCCCCCCCCCCCCCCCC(=O)*; Dip = N[C@H](C(=O)O)C(c1ccccc1)c1ccccc1; Palmitoyl = CCCCCCCCCCCCCCCC(=O)*; β3hF = N[C@H](CC(=O)O)Cc1ccccc1; Cha = N[C@@H](CC1CCCCC1)C(=O)O; Tle = CC(C)(C)[C@H](N)C(=O)O; hLeu = CC(C)CC[C@H](N)C(=O)O; Isovaleryl = CC(C)CC(=O)*; Ac6c = NC1(C(=O)O)CCCCC1; Dap = NC[C@H](N)C(=O)O; AEEA = NCCOCCOCC(=O)O; Ahx = NCCCCCC(=O)O

What follows are binders tested against T1, human ferroportin (SLC40A1) fused in frame with GFP, stably expressed in HEK293 cells (human, UniProt Q9NP59 1-571) (assay: cell-based or functional assay).
T1 sequence (looked up): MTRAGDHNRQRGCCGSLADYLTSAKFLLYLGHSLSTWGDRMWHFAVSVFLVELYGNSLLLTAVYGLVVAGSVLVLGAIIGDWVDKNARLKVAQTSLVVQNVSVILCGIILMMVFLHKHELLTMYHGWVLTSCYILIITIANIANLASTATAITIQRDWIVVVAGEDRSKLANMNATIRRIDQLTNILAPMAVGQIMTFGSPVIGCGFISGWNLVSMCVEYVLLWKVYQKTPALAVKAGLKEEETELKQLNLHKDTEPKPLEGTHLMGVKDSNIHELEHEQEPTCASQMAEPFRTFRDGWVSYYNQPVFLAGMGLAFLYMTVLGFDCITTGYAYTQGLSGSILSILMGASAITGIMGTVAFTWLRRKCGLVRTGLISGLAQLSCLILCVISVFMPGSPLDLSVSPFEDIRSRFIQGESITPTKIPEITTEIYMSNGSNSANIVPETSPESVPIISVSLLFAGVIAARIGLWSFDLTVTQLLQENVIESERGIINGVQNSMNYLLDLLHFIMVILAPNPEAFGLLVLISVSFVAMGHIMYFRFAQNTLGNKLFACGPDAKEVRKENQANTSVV

Binder | IC50: FPN internalisation [nM]
XXTXXPCIXXXC ([Isovaleric Acid]-[Glu(OMe)]-T-[4Pal]-[Dpa]-P-C-I-[Lys(1PEG2_1PEG2_Dap_C18_Diacid)]-[bhPhe]-[(D)Lys]-C-NH2) [Seq. No. 499] | 14.3
XXTHXPCIXXXC ([Isovaleric Acid]-[Glu(OMe)]-T-H-[Dpa]-P-C-I-[Lys(1PEG2_1PEG2_Dap_C18_Diacid)]-[Achc]-[(D)Lys]-C-NH2) [Seq. No. 507] | 29.6
XXTHXPCIXXXC ([Isovaleric Acid]-[Glu(OMe)]-T-H-[Dpa]-P-C-I-[Lys(PEG12_DMG_N_2ae_Palm)]-[bhPhe]-[(D)Lys]-C-NH2) [Seq. No. 530] | 37.4
XXTYXPCIXXXC ([Isovaleric Acid]-[Glu(OMe)]-T-Y-[Dpa]-P-C-I-[Lys(1PEG2_1PEG2_Ahx_C18_Diacid)]-[bhPhe]-[(D)Lys]-C-NH2) [Seq. No. 497] | 35.3
XXTHXPCIXXXC ([Isovaleric Acid]-[IsoGlu]-T-H-[Dpa]-P-C-I-[Lys(1PEG2_1PEG2_Ahx_C18_Diacid)]-[bhPhe]-[(D)Lys(PEG11_OMe)]-C-NH2) [Seq. No. 533] | 203
XXTHXPCIXXXC ([Isovaleric Acid]-[(D)Glu]-T-H-[Dpa]-P-C-I-[Lys(1PEG2_1PEG2_Ahx_C18_Diacid)]-[bhPhe]-[(D)Lys(PEG11_OMe)]-C-NH2) [Seq. No. 540] | 142
XXTHXPXIXXXXC ([Isovaleric Acid]-[Glu(OMe)]-T-H-[Dpa]-P-[(D)Cys]-I-[(D)Lys]-[bhPhe]-[Lys(PEG2_1PEG2_DMG_N_2ae_C18_Diacid)]-[(D)Lys]-C-NH2) [Seq. No. 494] | 107
XETHXPCIXXXXC ([Isovaleric Acid]-E-T-H-[Dpa]-P-C-I-[(D)Lys]-[bhPhe]-[N-MeLys(Ahx_Palm)]-[(D)Lys(Carnitine)]-C-NH2) [Seq. No. 541] | 26
XXTHXPCIXXXC ([Isovaleric Acid]-[Glu(OMe)]-T-H-[Dpa]-P-C-I-[Lys(1PEG2_1PEG2_Dap_C18_Diacid)]-[Hph]-[(D)Lys]-C-NH2) [Seq. No. 508] | 24.2
XETHXPCIXXXXC ([Isovaleric Acid]-E-T-H-[Dpa]-P-C-I-[(D)Lys]-[bhPhe]-[Lys(Ahx_DMG_N_2ae_Palm)]-[(D)Lys]-C-NH2) [Seq. No. 527] | 31
XXTHXPCIXXXC ([Isovaleric Acid]-[Glu(OMe)]-T-H-[Dpa]-P-C-I-[Lys(1PEG2_1PEG2_Dap_C18_Diacid)]-[Igl]-[(D)Lys]-C-NH2) [Seq. No. 522] | 19.2
XXTHXPXIXXXC ([Isovaleric Acid]-[Glu(OMe)]-T-H-[Dpa]-P-[(D)Cys]-I-[Lys(PEG2_1PEG2_DMG_N_2ae_C18_Diacid)]-[bhPhe]-[(D)Lys]-C-NH2) [Seq. No. 495] | 14.9
XETHXPCIXXXXC ([Isovaleric Acid]-E-T-H-[Dpa]-P-C-I-[(D)Lys]-[bhPhe]-[Lys(DMG_N_2ae_Palm)]-[(D)Lys]-C-NH2) [Seq. No. 525] | 7.98
XETXXPCIXXXC ([Isovaleric Acid]-E-T-[3Quin]-[Dpa]-P-C-I-[Lys(1PEG2_1PEG2_Dap_C18_Diacid)]-[bhPhe]-[(D)Lys]-C-NH2) [Seq. No. 479] | 475
XXTHXPCIXXXC ([Isovaleric Acid]-[Glu(OMe)]-T-H-[Dpa]-P-C-I-[Lys(1PEG2_1PEG2_Dap_C18_Diacid)]-[bhPhe(4-Me)]-[(D)Lys]-C-NH2) [Seq. No. 505] | 16.7
XEXHXPCIXXXC (not fully specified; [Isovaleric Acid]-E-[Dap]-H-[Dpa]-P-C-I-[Lys(1PEG2_1PEG2_Ahx_C18_Diacid)]-[bhPhe]-[(D)Lys]-C-NH2) [Seq. No. 547] | 24.8

Binder | IC50: FPN internalisation [nM]
XETHXPCIXXXC ([Isovaleric Acid]-E-T-H-[Dpa]-P-C-I-[Lys(1PEG2_1PEG2_IsoGlu_C18_Diacid)]-[bhPhe]-[(D)Lys(Carnitine)]-C-NH2) [Seq. No. 543] | 13.2
XETYXPCIXXXC ([Isovaleric Acid]-E-T-Y-[Dpa]-P-C-I-[Lys(1PEG2_1PEG2_Dap_C18_Diacid)]-[bhPhe]-[(D)Lys]-C-NH2) [Seq. No. 477] | 246
XXTHXPCIXXXC ([Isovaleric Acid]-[Glu(OMe)]-T-H-[Dpa]-P-C-I-[Lys(1PEG2_1PEG2_Dap_C18_Diacid)]-[bhPhe]-[(D)Lys(Ac)]-C-NH2) [Seq. No. 521] | 10.1
XXTHXPCIXXXC ([Isovaleric Acid]-[Glu(OMe)]-T-H-[Dpa]-P-C-I-[Lys(Ahx_DMG_N_2ae_Palm)]-[bhPhe]-[(D)Lys]-C-NH2) [Seq. No. 532] | 7.14
Isovaleryl-[Glu(OMe)]TH[Dip]PC[hLeu]K([AEEA-AEEA-Dap-C18 diacid])[β3hF][dK]C-NH2 (disulfide 6-11 (inferred)) [Seq. No. 515] | 12.5
Isovaleryl-[Glu(OMe)]TH[Dip]PC[dR]K([AEEA-AEEA-Dap-C18 diacid])[β3hF][dK]C-NH2 (disulfide 6-11 (inferred)) [Seq. No. 536] | 94.1
XXTHXPCIXXXC ([Isovaleric Acid]-[Glu(OMe)]-T-H-[Dpa]-P-C-I-[Lys(1PEG2_1PEG2_Dap_C18_Diacid)]-[Phe(4-COOH)]-[(D)Lys]-C-NH2) [Seq. No. 503] | 180
Isovaleryl-[Glu(OMe)]TH[Dip]PCIK([AEEA-AEEA-Dap-C18 diacid])[hLeu][dK]C-NH2 (disulfide 6-11 (inferred)) [Seq. No. 509] | 20.6
Isovaleryl-[Glu(OMe)]TH[Dip]PCI[dK][β3hF]K([Ahx-Palmitoyl])[dR]C[dR]-NH2 (disulfide 6-12 (inferred)) [Seq. No. 500] | 52.5
Isovaleryl-[Glu(OMe)]TH[Dip]PC[Cha]K([AEEA-AEEA-Dap-C18 diacid])[β3hF][dK]C-NH2 (disulfide 6-11 (inferred)) [Seq. No. 511] | 16.9
XXTXXPCIXXXC ([Isovaleric Acid]-[Glu(OMe)]-T-[4Pal]-[Dpa]-P-C-I-[Lys(1PEG2_1PEG2_Ahx_C18_Diacid)]-[bhPhe]-[(D)Lys]-C-NH2) [Seq. No. 496] | 10.6
Isovaleryl-ETHFPCIK(Ac)F[dK]C-NH2 (disulfide 6-11 (inferred)) [Seq. No. 478] | 69.9
XETHXPCIXXXC ([Isovaleric Acid]-E-T-H-[Dpa]-P-C-I-[Lys(PEG2_1PEG2_DMG_N_2ae_C18_Diacid)]-[bhPhe]-[(D)Lys]-C-NH2) [Seq. No. 544] | 9.26
Isovaleryl-[Glu(OMe)]TH[Dip]PCIK([AEEA-AEEA-Dap-C18 diacid])[β3hF][dR]C-NH2 (disulfide 6-11 (inferred)) [Seq. No. 535] | 21
XXTHXPCIXXXC ([Isovaleric Acid]-[Glu(OMe)]-T-H-[Dpa]-P-C-I-[Lys(PEG2_1PEG2_DMG_N_2ae_C18_Diacid)]-[bhPhe]-[(D)Lys]-C-NH2) [Seq. No. 545] | 14.6

Further lines, results first:

IC50: FPN internalisation [nM] | Binder
39.9 | Isovaleryl-[Glu(OMe)]TH[Dip]PCI[dK][β3hF]K([Ahx-Palmitoyl])[dR]C-NH2 (disulfide 6-12 (inferred)) [Seq. No. 501]
19.9 | XXTHXPCIXXXC ([Isovaleric Acid]-[Glu(OMe)]-T-H-[Dpa]-P-C-I-[Lys(PEG12_Dap_C18_Diacid)]-[bhPhe]-[(D)Lys]-C-NH2) [Seq. No. 520]
124 | XXTWXPCIXXXC ([sovaleric Acid]-[Glu(OMe)]-T-W-[Dpa]-P-C-I-[Lys(1PEG2_1PEG2_Ahx_C18_Diacid)]-[bhPhe]-[(D)Lys]-C-NH2) [Seq. No. 498]
28.1 | XXTHXPCIXXXXC ([Isovaleric Acid]-[Glu(OMe)]-T-H-[Dpa]-P-C-I-[(D)Lys]-[bhPhe]-[Lys(DMG_N_2ae_Palm)]-[(D)Lys]-C-NH2) [Seq. No. 526]
9.58 | XETHXPCIXXXC ([Isovaleric Acid]-E-T-H-[Dpa]-P-C-I-[Lys(PEG12_Dap_C18_Diacid)]-[bhPhe]-[(D)Lys]-C-NH2) [Seq. No. 517]
54.6 | Isovaleryl-ETH[Dip]PCI[dK][β3hF]K([Ahx-Palmitoyl])[dR]C[dR]-NH2 (disulfide 6-12 (inferred)) [Seq. No. 474]
32.4 | XXTHXPCIXXXXC ([Isovaleric Acid]-[Glu(OMe)]-T-H-[Dpa]-P-C-I-[(D)Lys]-[bhPhe]-[Lys(Ahx_DMG_N_2ae_Palm)]-[(D)Lys]-C-NH2) [Seq. No. 528]
37.4 | Isovaleryl-[Glu(OMe)]TH[Dip]PC[Ac6c]K([AEEA-AEEA-Dap-C18 diacid])[β3hF][dK]C-NH2 (disulfide 6-11 (inferred)) [Seq. No. 512]
1760 | XETHXPCIXXXXC ([Isovaleric Acid]-E-T-H-[Dpa]-P-C-I-[Lys(Ac)]-[bhPhe]-[Lys(Ahx_Palm)]-[(D)Arg]-C-NH2) [Seq. No. 476]
50.8 | XEXHXPCIXXXXC (not fully specified; [Isovaleric Acid]-E-[Dap]-H-[Dpa]-P-C-I-[(D)Lys]-[bhPhe]-[Lys(Ahx_Palm)]-[(D)Lys]-C-NH2) [Seq. No. 549]
55.7 | Isovaleryl-[Dap]TH[Dip]PCI[dK][β3hF]K([Ahx-Palmitoyl])[dR]C-NH2 (disulfide 6-12 (inferred)) [Seq. No. 502]
53.6 | XEXHXPCIXXXC ([Isovaleric Acid]-E-[Dab]-H-[Dpa]-P-C-I-[Lys(1PEG2_1PEG2_Ahx_C18_Diacid)]-[bhPhe]-[(D)Lys]-C-NH2) [Seq. No. 546]
42.8 | Isovaleryl-ETH[Dip]PCI[dK][β3hF]K([Ahx-Palmitoyl])[dR]C-NH2 (disulfide 6-12 (inferred)) [Seq. No. 475]
46.3 | XEXHXPCIXXXXC (not fully specified; [Isovaleric Acid]-E-[Dab]-H-[Dpa]-P-C-I-[(D)Lys]-[bhPhe]-[Lys(Ahx_Palm)]-[(D)Lys]-C-NH2) [Seq. No. 548]
9.02 | XETHXPCIXXXC ([Isovaleric Acid]-E-T-H-[Dpa]-P-C-I-[N-MeLys(Ahx_Palm)]-[bhPhe]-[(D)Lys(Carnitine)]-C-NH2) [Seq. No. 542]
13.6 | Isovaleryl-[Glu(OMe)]TH[Dip]PC[Tle]K([AEEA-AEEA-Dap-C18 diacid])[β3hF][dK]C-NH2 (disulfide 6-11 (inferred)) [Seq. No. 514]
24.7 | XXTHXPCIXXXC ([Isovaleric Acid]-[Glu(OMe)]-T-H-[Dpa]-P-C-I-[Lys(PEG12_PEG12_Dap_C18_Diacid)]-[bhPhe]-[(D)Lys]-C-NH2) [Seq. No. 519]
33.8 | XXTHXPCIXXXC ([Isovaleric Acid]-[(D)Arg]-T-H-[Dpa]-P-C-I-[Lys(1PEG2_1PEG2_Dap_C18_Diacid)]-[bhPhe]-[(D)Lys]-C-NH2) [Seq. No. 537]
